This passage reports percent of actin in the pellet (actin alone) and percent of actin in the pellet (with anti-aSM-1 results from paper PMC2199961.

Values joined by “and” are separate entries in the source; they are usually repeats but may differ in a detail not shown here. Equal values may be shown once.

For this test, the target named is aortic smooth muscle actin (alpha-smooth muscle actin) (bovine) (UniProt P62739). Nature of the test: co-sedimentation.

In the case of “aortic smooth muscle actin (alpha-smooth muscle actin) (from UniProt P62739 3-377) (natural protein)”, the percent of actin in the pellet (actin alone) is 10% and 20%; the percent of actin in the pellet (with anti-aSM-1 at 1:16 antibody/actin) is above 60%.
